Earlier results, collected in article PMC11727785.
Like-named read-outs stand apart in the source and are kept apart here.

Key:
[1] = target: IL-18 (Homo sapiens) (UniProt Q14116)
[2] = target: IL-18 (Homo sapiens) (UniProt Q14116); test: SPR
[3] = target: IL-18 receptor complex (Homo sapiens) (UniProt Q13478)
[4] = target: IL-18 receptor alpha chain (Homo sapiens) (UniProt Q13478)
Chain of IL-18 receptor alpha chain (Homo sapiens) (Q13478 19-541): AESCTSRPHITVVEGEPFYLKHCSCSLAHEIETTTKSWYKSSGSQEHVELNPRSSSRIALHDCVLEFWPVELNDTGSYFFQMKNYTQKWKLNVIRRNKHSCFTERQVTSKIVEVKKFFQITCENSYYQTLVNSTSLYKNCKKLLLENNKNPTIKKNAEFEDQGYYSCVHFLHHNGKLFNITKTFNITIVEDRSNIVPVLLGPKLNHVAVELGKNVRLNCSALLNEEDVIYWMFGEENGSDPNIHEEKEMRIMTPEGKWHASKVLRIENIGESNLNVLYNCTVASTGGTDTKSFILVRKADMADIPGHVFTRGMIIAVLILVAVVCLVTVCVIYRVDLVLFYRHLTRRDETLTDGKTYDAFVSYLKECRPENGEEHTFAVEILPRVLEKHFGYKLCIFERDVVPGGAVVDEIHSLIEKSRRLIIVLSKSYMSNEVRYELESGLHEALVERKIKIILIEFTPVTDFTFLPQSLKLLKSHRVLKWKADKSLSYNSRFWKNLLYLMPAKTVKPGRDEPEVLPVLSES

Chain of IL-18 (Homo sapiens) (Q14116 37-193): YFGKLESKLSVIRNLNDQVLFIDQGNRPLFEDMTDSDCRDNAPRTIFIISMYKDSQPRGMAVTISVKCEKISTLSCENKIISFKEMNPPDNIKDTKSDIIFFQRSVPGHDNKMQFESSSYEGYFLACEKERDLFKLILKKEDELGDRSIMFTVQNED
Chain of IL-18 (Q14116 37-193): as above
Chain of IL-18BP (O95998 31-194): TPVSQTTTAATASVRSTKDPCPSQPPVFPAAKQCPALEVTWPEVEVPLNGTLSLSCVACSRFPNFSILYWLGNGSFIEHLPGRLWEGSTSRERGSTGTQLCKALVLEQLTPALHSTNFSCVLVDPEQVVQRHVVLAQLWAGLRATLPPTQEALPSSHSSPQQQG
Chain of IL-18 receptor complex (Homo sapiens) (Q13478 19-541, chain 1 of 2): as the sequence (Q13478 19-541) above
Chain of IL-18 receptor complex (Homo sapiens) (O95256 20-599, chain 2 of 2, further chain): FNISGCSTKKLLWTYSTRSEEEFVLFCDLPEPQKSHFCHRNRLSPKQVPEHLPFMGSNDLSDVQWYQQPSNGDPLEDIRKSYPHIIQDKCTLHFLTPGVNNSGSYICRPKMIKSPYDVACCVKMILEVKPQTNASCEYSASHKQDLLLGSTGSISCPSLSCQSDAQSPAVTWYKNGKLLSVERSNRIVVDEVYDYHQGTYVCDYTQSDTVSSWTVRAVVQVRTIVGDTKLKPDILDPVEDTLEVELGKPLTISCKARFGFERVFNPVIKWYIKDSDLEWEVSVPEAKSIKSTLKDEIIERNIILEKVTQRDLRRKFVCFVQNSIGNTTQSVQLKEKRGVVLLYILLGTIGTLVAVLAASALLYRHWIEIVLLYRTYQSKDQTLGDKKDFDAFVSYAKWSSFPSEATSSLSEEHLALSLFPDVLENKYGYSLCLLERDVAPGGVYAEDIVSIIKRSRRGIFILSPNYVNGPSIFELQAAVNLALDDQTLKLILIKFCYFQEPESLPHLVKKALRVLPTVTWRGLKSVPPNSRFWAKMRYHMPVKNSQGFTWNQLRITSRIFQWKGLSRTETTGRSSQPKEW

Row | Kd [3] | Kd [4] | Substance | Kd [1] | Kd [2]
1 |  |  | IL-18BP (from UniProt O95998) | 0.05 nM | 0.4 nM
2 | 0.4 nM | 18.5 nM | IL-18 (from UniProt Q14116) |  | 
